T1: OprM wild type (outer membrane factor) (Pseudomonas aeruginosa, UniProt Q51487 18-485)
T1 construct: OprM, outer membrane factor of MexA-MexB-OprM, Pseudomonas aeruginosa; Stabilised in biotinylated amphipol (BNAPol) for BLI and in MSP1D1/POPC nanodiscs for the tripartite complexes; also called OprMwt; OMF; source: expressed and purified from bacteria
T1 sequence: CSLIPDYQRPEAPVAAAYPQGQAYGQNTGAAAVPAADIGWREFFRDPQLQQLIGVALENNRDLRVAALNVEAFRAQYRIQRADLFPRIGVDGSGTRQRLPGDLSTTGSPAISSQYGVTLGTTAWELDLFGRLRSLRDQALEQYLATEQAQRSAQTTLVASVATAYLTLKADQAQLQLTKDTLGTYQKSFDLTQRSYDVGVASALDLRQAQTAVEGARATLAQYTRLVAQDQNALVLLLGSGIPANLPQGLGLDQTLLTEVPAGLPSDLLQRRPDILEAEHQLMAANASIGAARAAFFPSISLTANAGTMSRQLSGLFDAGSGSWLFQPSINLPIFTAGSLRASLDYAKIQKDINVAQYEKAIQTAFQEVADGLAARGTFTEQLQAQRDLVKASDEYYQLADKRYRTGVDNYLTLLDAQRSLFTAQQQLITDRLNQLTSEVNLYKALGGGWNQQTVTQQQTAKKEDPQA

B1: MexA wild type (periplasmic adaptor protein of MexA-MexB-OprM) (natural protein)
chain: CGKSEAPPPAQTPEVGIVTLEAQTVTLNTELPGRTNAFRIAEVRPQVNGIILKRLFKEGSDVKAGQQLYQIDPATYEADYQSAQANLASTQEQAQRYKLLVADQAVSKQQYADANAAYLQSKAAVEQARINLRYTKVLSPISGRIGRSAVTEGALVTNGQANAMATVQQLDPIYVDVTQPSTALLRLRRELASGQLERAGDNAAKVSLKLEDGSQYPLEGRLEFSEVSVDEGTGSVTIRAVFPNPNNELLPGMFVHAQLQEGVKQKAILAPQQGVTRDLKGQATALVVNAQNKVELRVIKADRVIGDKWLVTEGLNAGDKIITEGLQFVQPGVEVKTVPAKNVASAQKADAAPAKTDSKG
notes: MexA, periplasmic adaptor protein of the MexA-MexB-OprM efflux system, Pseudomonas aeruginosa; Kept in 0.05% DDM; also called MexAwt; PAP; source: expressed and purified from bacteria

Legend:
[1] = biological target: MexA Q93R variant (Pseudomonas aeruginosa) (UniProt P52477); test: SEC + other: negative-staining EM; Superdex 200 PC 3.2/30 in 10 mM Tris/HCl pH 7.4, 100 mM NaCl, 0.01% NaN3, 0.05% DDM; peak fraction stained with uranyl acetate, single-particle average image
[2] = biological target: OprM C-terminal deletion variant OprM_(Δ473-485) (Pseudomonas aeruginosa) (UniProt Q51487); test: BLI; OMF or MexB stabilised in biotinylated non-ionic amphipol (BNAPol) immobilised on streptavidin (SAX) biosensors, MexA as analyte (0-100 uM for OMFs, 0-200 uM for MexB); BLItz device, room temperature; 10 mM Tris/HCl pH 7.4, 100 mM NaCl, 0.01% NaN3, 0.05% DDM; Langmuir 1:1 fit
[3] = biological target: TolC (outer membrane factor of E. coli) (Escherichia coli) (UniProt P02930); test: as above
[4] = biological target: OprM wild type (outer membrane factor) (Pseudomonas aeruginosa) (UniProt Q51487); test: as above
[5] = biological target: OprN (outer membrane factor) (Pseudomonas aeruginosa) (UniProt Q9I0Y7); test: as above
[6] = biological target: MexB (RND inner membrane transporter) (Pseudomonas aeruginosa) (UniProt P52002); test: as above
[7] = biological target: T1, OprM wild type (outer membrane factor); test: as above; details: both partners purified

Molecule	stoichiometry N [1]	Kd [2]	koff [2]	kon [2]	Kd [3]	koff [3]	kon [3]	Kd [4]	koff [4]	kon [4]	Kd [5]	koff [5]	kon [5]	Kd [6]	koff [6]	kon [6]	Kd [7]	koff [7]	kon [7]
MexA Q93R variant (from UniProt P52477 24-383) (natural protein)	6	25.7 µM	0.00263 s⁻¹	102 M⁻¹ s⁻¹	17.8 µM	0.00191 s⁻¹	108 M⁻¹ s⁻¹	32.9 µM	0.00266 s⁻¹	81 M⁻¹ s⁻¹	26.9 µM	0.00238 s⁻¹	88 M⁻¹ s⁻¹	17.4 µM	0.003 s⁻¹	173 M⁻¹ s⁻¹			
MexA wild type (periplasmic adaptor protein of MexA-MexB-OprM) (from UniProt P52477 24-383) (natural protein)		44 µM	0.00458 s⁻¹	103 M⁻¹ s⁻¹	45.8 µM	0.0058 s⁻¹	127 M⁻¹ s⁻¹				20 µM	0.00358 s⁻¹	177 M⁻¹ s⁻¹						
B1																	12 µM	0.00215 s⁻¹	180 M⁻¹ s⁻¹

— paper PMC8868134, “Molecular Determinants for OMF Selectivity in Tripartite RND Multidrug Efflux Systems” (Antibiotics, 2022)
